Test results: patent US20180016327A1 (Chugai, published 2018)

Biological target: T1, human C5 (human, UniProt P01031 19-673; P01031 678-1676, Beta and alpha chains are disulfide-linked and the protein is glycosylated.)
T1 construct: Either in-house recombinant C5 or plasma derived C5 (CALBIOCHEM) was used; also called recombinant human C5; plasma derived human C5
Experiment: Biacore, captured antibody, pH 7.4, 37 C;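 note: biacore binding response of anti-C5 antibody light chain variants captured on chip with human C5 injected, ACES running buffer containing 1.2 mM CaCl₂, parent light chain antibody set to 100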

Row | % binding (parent = 100) [%] | Binder
1 | 2.4 | CFP0015 15L 91R (antibody, V domains shown) VH: QVQLLESGGGLVQPGGSLRLSCAASGFTFSSYAMSWVRQAPGKGLEWVSAISGSGGSTYYADSVKGRFTISRDNSKNTLYLQMNSLRAEDTAVYYCARGDQIWYDQWYYFDMWGQGTLVTVSS VL: DIQMTQSPSSLSASVGDRVTITCRASQSIEDDLAWYQQKPGKAPKLLIYEASNLQSGVPSRFSGSGSGTDFTLTISSLQPEDFATYYCQQRDSSPLTFGQGTKVEIK
2 | 75.8 | CFP0015 15L 53T (antibody, V domains shown) VH: QVQLLESGGGLVQPGGSLRLSCAASGFTFSSYAMSWVRQAPGKGLEWVSAISGSGGSTYYADSVKGRFTISRDNSKNTLYLQMNSLRAEDTAVYYCARGDQIWYDQWYYFDMWGQGTLVTVSS VL: DIQMTQSPSSLSASVGDRVTITCRASQSIEDDLAWYQQKPGKAPKLLIYEASTLQSGVPSRFSGSGSGTDFTLTISSLQPEDFATYYCQQYDSSPLTFGQGTKVEIK
3 | 99.8 | CFP0015 15L 92E (antibody, V domains shown) VH: QVQLLESGGGLVQPGGSLRLSCAASGFTFSSYAMSWVRQAPGKGLEWVSAISGSGGSTYYADSVKGRFTISRDNSKNTLYLQMNSLRAEDTAVYYCARGDQIWYDQWYYFDMWGQGTLVTVSS VL: DIQMTQSPSSLSASVGDRVTITCRASQSIEDDLAWYQQKPGKAPKLLIYEASNLQSGVPSRFSGSGSGTDFTLTISSLQPEDFATYYCQQYESSPLTFGQGTKVEIK
4 | 81.5 | CFP0015 15L 91H (antibody, V domains shown) VH: QVQLLESGGGLVQPGGSLRLSCAASGFTFSSYAMSWVRQAPGKGLEWVSAISGSGGSTYYADSVKGRFTISRDNSKNTLYLQMNSLRAEDTAVYYCARGDQIWYDQWYYFDMWGQGTLVTVSS VL: DIQMTQSPSSLSASVGDRVTITCRASQSIEDDLAWYQQKPGKAPKLLIYEASNLQSGVPSRFSGSGSGTDFTLTISSLQPEDFATYYCQQHDSSPLTFGQGTKVEIK
5 | 27.3 | CFP0015 15L 91S (antibody, V domains shown) VH: QVQLLESGGGLVQPGGSLRLSCAASGFTFSSYAMSWVRQAPGKGLEWVSAISGSGGSTYYADSVKGRFTISRDNSKNTLYLQMNSLRAEDTAVYYCARGDQIWYDQWYYFDMWGQGTLVTVSS VL: DIQMTQSPSSLSASVGDRVTITCRASQSIEDDLAWYQQKPGKAPKLLIYEASNLQSGVPSRFSGSGSGTDFTLTISSLQPEDFATYYCQQSDSSPLTFGQGTKVEIK
6 | 20.4 | CFP0015 15L 91D (antibody, V domains shown) VH: QVQLLESGGGLVQPGGSLRLSCAASGFTFSSYAMSWVRQAPGKGLEWVSAISGSGGSTYYADSVKGRFTISRDNSKNTLYLQMNSLRAEDTAVYYCARGDQIWYDQWYYFDMWGQGTLVTVSS VL: DIQMTQSPSSLSASVGDRVTITCRASQSIEDDLAWYQQKPGKAPKLLIYEASNLQSGVPSRFSGSGSGTDFTLTISSLQPEDFATYYCQQDDSSPLTFGQGTKVEIK
7 | 30.1 | CFP0015 15L 91E (antibody, V domains shown) VH: QVQLLESGGGLVQPGGSLRLSCAASGFTFSSYAMSWVRQAPGKGLEWVSAISGSGGSTYYADSVKGRFTISRDNSKNTLYLQMNSLRAEDTAVYYCARGDQIWYDQWYYFDMWGQGTLVTVSS VL: DIQMTQSPSSLSASVGDRVTITCRASQSIEDDLAWYQQKPGKAPKLLIYEASNLQSGVPSRFSGSGSGTDFTLTISSLQPEDFATYYCQQEDSSPLTFGQGTKVEIK
8 | 96.4 | CFP0015 15L 91Q (antibody, V domains shown) VH: QVQLLESGGGLVQPGGSLRLSCAASGFTFSSYAMSWVRQAPGKGLEWVSAISGSGGSTYYADSVKGRFTISRDNSKNTLYLQMNSLRAEDTAVYYCARGDQIWYDQWYYFDMWGQGTLVTVSS VL: DIQMTQSPSSLSASVGDRVTITCRASQSIEDDLAWYQQKPGKAPKLLIYEASNLQSGVPSRFSGSGSGTDFTLTISSLQPEDFATYYCQQQDSSPLTFGQGTKVEIK
9 | 50.7 | CFP0015 15L 91T (antibody, V domains shown) VH: QVQLLESGGGLVQPGGSLRLSCAASGFTFSSYAMSWVRQAPGKGLEWVSAISGSGGSTYYADSVKGRFTISRDNSKNTLYLQMNSLRAEDTAVYYCARGDQIWYDQWYYFDMWGQGTLVTVSS VL: DIQMTQSPSSLSASVGDRVTITCRASQSIEDDLAWYQQKPGKAPKLLIYEASNLQSGVPSRFSGSGSGTDFTLTISSLQPEDFATYYCQQTDSSPLTFGQGTKVEIK

More lines, now with the values behind:

Row | Binder | % binding (parent = 100) [%]
10 | CFP0015 15L 32T (antibody, V domains shown) VH: QVQLLESGGGLVQPGGSLRLSCAASGFTFSSYAMSWVRQAPGKGLEWVSAISGSGGSTYYADSVKGRFTISRDNSKNTLYLQMNSLRAEDTAVYYCARGDQIWYDQWYYFDMWGQGTLVTVSS VL: DIQMTQSPSSLSASVGDRVTITCRASQSIEDTLAWYQQKPGKAPKLLIYEASNLQSGVPSRFSGSGSGTDFTLTISSLQPEDFATYYCQQYDSSPLTFGQGTKVEIK | 78.1
11 | CFP0015 15L 32Y (antibody, V domains shown) VH: QVQLLESGGGLVQPGGSLRLSCAASGFTFSSYAMSWVRQAPGKGLEWVSAISGSGGSTYYADSVKGRFTISRDNSKNTLYLQMNSLRAEDTAVYYCARGDQIWYDQWYYFDMWGQGTLVTVSS VL: DIQMTQSPSSLSASVGDRVTITCRASQSIEDYLAWYQQKPGKAPKLLIYEASNLQSGVPSRFSGSGSGTDFTLTISSLQPEDFATYYCQQYDSSPLTFGQGTKVEIK | 15.1
12 | CFP0015 15L 53S (antibody, V domains shown) VH: QVQLLESGGGLVQPGGSLRLSCAASGFTFSSYAMSWVRQAPGKGLEWVSAISGSGGSTYYADSVKGRFTISRDNSKNTLYLQMNSLRAEDTAVYYCARGDQIWYDQWYYFDMWGQGTLVTVSS VL: DIQMTQSPSSLSASVGDRVTITCRASQSIEDDLAWYQQKPGKAPKLLIYEASSLQSGVPSRFSGSGSGTDFTLTISSLQPEDFATYYCQQYDSSPLTFGQGTKVEIK | 73.6
13 | CFP0015 15L 50Y (antibody, V domains shown) VH: QVQLLESGGGLVQPGGSLRLSCAASGFTFSSYAMSWVRQAPGKGLEWVSAISGSGGSTYYADSVKGRFTISRDNSKNTLYLQMNSLRAEDTAVYYCARGDQIWYDQWYYFDMWGQGTLVTVSS VL: DIQMTQSPSSLSASVGDRVTITCRASQSIEDDLAWYQQKPGKAPKLLIYYASNLQSGVPSRFSGSGSGTDFTLTISSLQPEDFATYYCQQYDSSPLTFGQGTKVEIK | 46.9
14 | CFP0015 15L 53H (antibody, V domains shown) VH: QVQLLESGGGLVQPGGSLRLSCAASGFTFSSYAMSWVRQAPGKGLEWVSAISGSGGSTYYADSVKGRFTISRDNSKNTLYLQMNSLRAEDTAVYYCARGDQIWYDQWYYFDMWGQGTLVTVSS VL: DIQMTQSPSSLSASVGDRVTITCRASQSIEDDLAWYQQKPGKAPKLLIYEASHLQSGVPSRFSGSGSGTDFTLTISSLQPEDFATYYCQQYDSSPLTFGQGTKVEIK | 80.8
15 | CFP0015 15L 50S (antibody, V domains shown) VH: QVQLLESGGGLVQPGGSLRLSCAASGFTFSSYAMSWVRQAPGKGLEWVSAISGSGGSTYYADSVKGRFTISRDNSKNTLYLQMNSLRAEDTAVYYCARGDQIWYDQWYYFDMWGQGTLVTVSS VL: DIQMTQSPSSLSASVGDRVTITCRASQSIEDDLAWYQQKPGKAPKLLIYSASNLQSGVPSRFSGSGSGTDFTLTISSLQPEDFATYYCQQYDSSPLTFGQGTKVEIK | 44.2
16 | CFP0015 15L 50H (antibody, V domains shown) VH: QVQLLESGGGLVQPGGSLRLSCAASGFTFSSYAMSWVRQAPGKGLEWVSAISGSGGSTYYADSVKGRFTISRDNSKNTLYLQMNSLRAEDTAVYYCARGDQIWYDQWYYFDMWGQGTLVTVSS VL: DIQMTQSPSSLSASVGDRVTITCRASQSIEDDLAWYQQKPGKAPKLLIYHASNLQSGVPSRFSGSGSGTDFTLTISSLQPEDFATYYCQQYDSSPLTFGQGTKVEIK | 8.8
17 | CFP0015 15L 34N (antibody, V domains shown) VH: QVQLLESGGGLVQPGGSLRLSCAASGFTFSSYAMSWVRQAPGKGLEWVSAISGSGGSTYYADSVKGRFTISRDNSKNTLYLQMNSLRAEDTAVYYCARGDQIWYDQWYYFDMWGQGTLVTVSS VL: DIQMTQSPSSLSASVGDRVTITCRASQSIEDDLNWYQQKPGKAPKLLIYEASNLQSGVPSRFSGSGSGTDFTLTISSLQPEDFATYYCQQYDSSPLTFGQGTKVEIK | 100
18 | CFP0015 15L 50T (antibody, V domains shown) VH: QVQLLESGGGLVQPGGSLRLSCAASGFTFSSYAMSWVRQAPGKGLEWVSAISGSGGSTYYADSVKGRFTISRDNSKNTLYLQMNSLRAEDTAVYYCARGDQIWYDQWYYFDMWGQGTLVTVSS VL: DIQMTQSPSSLSASVGDRVTITCRASQSIEDDLAWYQQKPGKAPKLLIYTASNLQSGVPSRFSGSGSGTDFTLTISSLQPEDFATYYCQQYDSSPLTFGQGTKVEIK | 26.9
19 | CFP0015 15L 50A (antibody, V domains shown) VH: QVQLLESGGGLVQPGGSLRLSCAASGFTFSSYAMSWVRQAPGKGLEWVSAISGSGGSTYYADSVKGRFTISRDNSKNTLYLQMNSLRAEDTAVYYCARGDQIWYDQWYYFDMWGQGTLVTVSS VL: DIQMTQSPSSLSASVGDRVTITCRASQSIEDDLAWYQQKPGKAPKLLIYAASNLQSGVPSRFSGSGSGTDFTLTISSLQPEDFATYYCQQYDSSPLTFGQGTKVEIK | 44.2
20 | CFP0015 15L 50Q (antibody, V domains shown) VH: QVQLLESGGGLVQPGGSLRLSCAASGFTFSSYAMSWVRQAPGKGLEWVSAISGSGGSTYYADSVKGRFTISRDNSKNTLYLQMNSLRAEDTAVYYCARGDQIWYDQWYYFDMWGQGTLVTVSS VL: DIQMTQSPSSLSASVGDRVTITCRASQSIEDDLAWYQQKPGKAPKLLIYQASNLQSGVPSRFSGSGSGTDFTLTISSLQPEDFATYYCQQYDSSPLTFGQGTKVEIK | 51.8
21 | CFP0015 15L 50D (antibody, V domains shown) VH: QVQLLESGGGLVQPGGSLRLSCAASGFTFSSYAMSWVRQAPGKGLEWVSAISGSGGSTYYADSVKGRFTISRDNSKNTLYLQMNSLRAEDTAVYYCARGDQIWYDQWYYFDMWGQGTLVTVSS VL: DIQMTQSPSSLSASVGDRVTITCRASQSIEDDLAWYQQKPGKAPKLLIYDASNLQSGVPSRFSGSGSGTDFTLTISSLQPEDFATYYCQQYDSSPLTFGQGTKVEIK | 131
